In assay [1] the target is Microtubules (polymerized Tubulin, Triton-insoluble fraction) of HeLa cells (human (endogenous in HeLa)) (UniProt P68363). In words: Triton-X-100 extraction of soluble and insoluble (cytoskeletal) fractions, Western blot and densitometry; HeLa cells transfected with pCGN-Centaurin-α2; 0.1% Triton-X-100 in Pipes pH 6.94, EGTA, MgCl2, 2 M glycerol, 10 min at room temperature; control cells or cells treated with nocodazole (3 µg/ml, 3 h) or cold (4°C, 3 h). A general note: A western blot detects proteins with antibodies after separation by electrophoresis.
Sequence of UniProt P68363 (P68363 whole entry, chain 1 of 2): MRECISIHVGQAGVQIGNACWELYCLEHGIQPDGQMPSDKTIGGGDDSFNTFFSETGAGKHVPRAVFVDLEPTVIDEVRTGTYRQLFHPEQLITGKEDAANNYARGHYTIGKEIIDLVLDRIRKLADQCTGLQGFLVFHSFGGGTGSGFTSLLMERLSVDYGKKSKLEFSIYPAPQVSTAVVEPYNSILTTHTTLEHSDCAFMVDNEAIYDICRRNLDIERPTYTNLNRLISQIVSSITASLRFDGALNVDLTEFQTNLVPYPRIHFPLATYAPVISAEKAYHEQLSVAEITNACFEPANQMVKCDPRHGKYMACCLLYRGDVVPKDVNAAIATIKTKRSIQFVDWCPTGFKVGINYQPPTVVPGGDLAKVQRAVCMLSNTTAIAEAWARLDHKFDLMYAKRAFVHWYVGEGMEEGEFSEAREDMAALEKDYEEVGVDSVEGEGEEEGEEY
Sequence of UniProt P68363 (P07437 whole entry, chain 2 of 2, further chain): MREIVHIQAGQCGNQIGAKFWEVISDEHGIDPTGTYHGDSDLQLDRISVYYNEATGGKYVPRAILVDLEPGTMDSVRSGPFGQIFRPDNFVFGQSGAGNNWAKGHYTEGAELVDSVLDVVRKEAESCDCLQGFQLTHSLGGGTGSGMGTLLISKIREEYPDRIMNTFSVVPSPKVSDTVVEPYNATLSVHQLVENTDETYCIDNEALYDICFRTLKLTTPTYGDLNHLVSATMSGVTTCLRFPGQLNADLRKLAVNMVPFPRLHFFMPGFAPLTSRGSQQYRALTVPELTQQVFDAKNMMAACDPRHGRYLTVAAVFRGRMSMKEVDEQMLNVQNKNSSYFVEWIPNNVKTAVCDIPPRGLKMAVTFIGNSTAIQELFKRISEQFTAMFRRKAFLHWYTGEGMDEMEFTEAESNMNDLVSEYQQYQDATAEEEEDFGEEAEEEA

Assay [2] concerns the target Tubulin purified from bovine brain, polymerised to microtubules in vitro (bovine) (UniProt Q6B856). Put plainly: co-sedimentation; as a4 (40 µM tubulin plus 5 µM Centaurin-α2, 90 minutes at 37°C), then 30 minutes of incubation on ice before centrifugation (37°C→4°C).
Assay [3] shares this target. In words: co-sedimentation; 40 µM tubulin plus 5 µM Centaurin-α2, 90 minutes of polymerization at 37°C in 80 mM K-PIPES pH 6.9, 2 mM EGTA, 1 mM MgCl2, 10% glycerol; 16500 g for 30 minutes; supernatant and pellet on SDS-PAGE, Coomassie, densitometry.

B1: HA (hemoagglutinin)-tagged Centaurin-α2 (pCGN-Centaurin-α2) (natural protein)
chain: MGDRERNKKRLLELLRAPDTGNAHCADCGAADPDWASYKLGIFICLNCCGVHRNFPDISRVKSVRLDFWDDSIVEFMIHNGNLRVKAKFEARVPAFYYIPQANDCLVLKEQWIRAKYERREFMADGETISLPGNREGFLWKRGRDNSQFLRRKFVLLAREGLLKYFTKEQGKSPKAVISIKDLNATFQTEKIGHPHGLQITYRRDGHTRNLFVYHESGKEIVDWFNALRAARLQYLKMAFPELPESELVPFLTRNYLKQGFMEKTGPKQKEPFKKRWFALDCHERRLLYYKNPLDAFEQGQVFLGNKEQGYEAYEDLPKGIRGNRWKAGLTIVTPERRFVLTCPSEKEQQEWLESLRGVLSSPLTPLNRLTASTESGRSSR
Take B1: the percent of Centaurin-α2 in the Triton-insoluble (MT) fraction in assay [1] was 80%.

B2: His-tagged Centaurin-α2 (recombinant, pET-Centα2) (natural protein)
chain: MGDRERNKKRLLELLRAPDTGNAHCADCGAADPDWASYKLGIFICLNCCGVHRNFPDISRVKSVRLDFWDDSIVEFMIHNGNLRVKAKFEARVPAFYYIPQANDCLVLKEQWIRAKYERREFMADGETISLPGNREGFLWKRGRDNSQFLRRKFVLLAREGLLKYFTKEQGKSPKAVISIKDLNATFQTEKIGHPHGLQITYRRDGHTRNLFVYHESGKEIVDWFNALRAARLQYLKMAFPELPESELVPFLTRNYLKQGFMEKTGPKQKEPFKKRWFALDCHERRLLYYKNPLDAFEQGQVFLGNKEQGYEAYEDLPKGIRGNRWKAGLTIVTPERRFVLTCPSEKEQQEWLESLRGVLSSPLTPLNRLTASTESGRSSR
Consider B2, for which the percent of Centaurin-α2 in the MT (pellet) fraction in assay [2] was determined as 50%; in assay [3], 80%.
